Numbering of substitutions follows the chain as printed.
How the values were obtained:
[1] = molecular target: T1, human SEZ6 on HEK-293T cells (human, UniProt Q53EL9 20-994); assay: immunohistochemistry
T1 construct: also called h293T-HuSEZ6

[2] = molecular target: T2, SEZ6 Sushi Domain 4 (amino acids 750-813) on yeast (human, UniProt Q53EL9 769-832); assay: yeast display, flow cytometry;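 note: antibody binding to individual SEZ6 domains displayed on yeast, measured by flow cytometry, antibody at 50 nM purified or hybridoma supernatant diluted 1:2, 90 min on ice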
T2 construct: yeast display

[3] = molecular target: T3, hSEZ6-ECD-His (human, UniProt Q53EL9 20-925); assay: immunohistochemistry, signal competed by soluble antigen
T3 construct: the whole entry is named; also called recombinant SEZ6-His; human recombinant SEZ6-His

[4] = molecular target: T4, SEZ6 Sushi Domain 5 (amino acids 817-878) on yeast (human, UniProt Q53EL9 836-897); assay: yeast display, flow cytometry;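 note: antibody binding to individual SEZ6 domains displayed on yeast, measured by flow cytometry, antibody at 50 nM purified or hybridoma supernatant diluted 1:2, 90 min on ice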
T4 construct: yeast display

[5] = molecular target: T5, SEZ6 CUB Domain 1 (aa 397-508) on yeast (human, UniProt Q53EL9 416-527); assay: yeast display, flow cytometry;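 note: antibody binding to individual SEZ6 domains displayed on yeast, measured by flow cytometry, antibody at 50 nM purified or hybridoma supernatant diluted 1:2, 90 min on ice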
T5 construct: yeast display
T5 sequence: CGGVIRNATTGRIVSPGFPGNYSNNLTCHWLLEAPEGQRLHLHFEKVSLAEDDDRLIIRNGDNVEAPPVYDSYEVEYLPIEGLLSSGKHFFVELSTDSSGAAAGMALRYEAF

[6] = molecular target: T6, SEZ6 Sushi Domain 2 (amino acids 511-572) on yeast (human, UniProt Q53EL9 530-591); assay: yeast display, flow cytometry;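 note: antibody binding to individual SEZ6 domains displayed on yeast, measured by flow cytometry, antibody at 50 nM purified or hybridoma supernatant diluted 1:2, 90 min on ice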
T6 construct: yeast display
T6 sequence: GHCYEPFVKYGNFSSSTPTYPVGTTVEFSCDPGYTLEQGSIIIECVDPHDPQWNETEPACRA

[7] = molecular target: T7, SEZ6 Sushi Domain 3 (amino acids 690-748) on yeast (human, UniProt Q53EL9 709-767); assay: yeast display, flow cytometry
T7 construct: yeast display

B1: SC17.140 (antibody, V domains shown)
VH: EVQLQQSGPELMKPGASVKMSCKASGYTFTDYNMHWVKQNQGKSLEWIGEINPNTGGTGYNQKFKGKATLTVDKFSSTAFIELRSLTSEDSAIYYCTRGGYDHYWYFDVWGAGTTVTVSS
VL: QIVLTQSPAIMSASPGEKVTMTCSASSSVSYMHWYQQKSGTSPKRWIYDTSKLASGVPARFSGSGSGTSYSLTISSMEAEDAATYYCQQWSSTPPTFGSGTKLEIK
notes: murine mAb
B1: binds [1]; binds [2]; binds [3].

B2: SC17.74 (antibody, V domains shown)
VH: QVQLKQSGPGLVAPSQSLSITCTVSGFSLTSYGVDWVRQSPGKGLEWLGVIWGGGSTNYNSALKSRLSITKDNSKSQVFLKMNSLQTDDTAMYYCASGDYDGSLWFAYWGQGTLVTVSA
VL: DIQMTQSSSYLSVSLGGRVTITCKASDHINNWLAWYQQKPGNAPRLLISGATSLETGVPSRFSGSGSGKDYTLSITSLQTEDVATYYCQQYWSTPPTFGAGTKLELK
notes: murine mAb
B2: binds [4].

B3: SC17.76 (antibody, V domains shown)
VH: EVQLVESGGDLVKPGGSLKLSCVASGFTFSSYGMSWVRQTPDKRLEWVATISSGGTFTYYPDSVKGRFTVSRDNAKNTLYLQMSSLKSEDTAMYYCSRHGWGWGQGTLVTVSA
VL: DIVITQDELSNPVTSGESVSISCRSSKSLLYKDGKTYLNWFLQRPGQSPQLLIYLMSTRASGVSDRFSGSGSGTDFTLEISRVKAEDVGVYYCQQLVEYPRTFGGGTKLEIK
notes: murine mAb
B3: binds [5].

B4: SC17.122 (antibody, V domains shown)
VH: B3 VH with Q3H, V23A, F57Y, V70I
VL: B3 VL with E8D
notes: murine mAb
B4: binds [5].

B5: SC17.90 (antibody, V domains shown)
VL: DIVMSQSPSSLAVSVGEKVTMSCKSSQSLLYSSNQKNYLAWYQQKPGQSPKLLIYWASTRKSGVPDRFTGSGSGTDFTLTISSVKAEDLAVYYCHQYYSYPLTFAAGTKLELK
VH: QVQLQQPGSVLVRPGASVKLSCKASGYTFTSYWMHWVKQRPGQGLEWIGEIHPNNGSTNYNEKFKGKATLTVDTSSSTAYVDLSSLTSEDSAVYYCARWTLFTYWGQGTLVTVSA
notes: murine mAb; also called SC17.155 (duplicate)
B5: binds [6].

B6: SC17.72 (antibody, V domains shown)
VH: EVQLVESGGGLVKPGGSLKLSCAASGFTFSSYGMSWVRQTPEKRLEWVAAINSNGGSTYYPDTVKGRLTISRDNGKNTLYLQMSSLRSEDTALYYCVRDDGYYVFFAYWGQGTLVTVSA
VL: DIQMTQTTSSLSASLGDRVTISCSASQGISNYLNWYQQKPDGTVKLLIYYTSSLHSGVPSKFSGSGSGTDYSLTISNLEPEDIATYYCQQYSKLPYTFGGGTKLEIK
notes: murine mAb
B6: binds [7].

B7: SC17.95 (antibody, V domains shown)
VH: EVELQQSGPELVKPGASVKISCKTSGNTYTEYTMQWVKLSHGKSLEWIGGINPNNGITSYNQKFKGKATLTVDKSSSTAYMELRSLKSEDSAVYYCARAGLGNYVWAMDYWGQGASVTVSS
VL: B6 VL with S30N, K45T, K61R, Y96W
notes: murine mAb
B7: binds [7].
